# ± gives the standard error. For part of these data: Fewer inactive variants are shown than the library holds.
# B1: glmS ribozyme (parent)
# chain: AUAAAAGCGCCAGAACUACAGAAAUGUAGUUGACGAGGAGGAGGUUUAUCGAAUUUUCGGCGGAUGCCUCCAAA
# Columns and labels:
# Conditions in all cases: with glucosamine-6-phosphate
# [1] = variants of: B1; experiment: kcat; higher = faster cleavage; RNA array
# Procedure, shortened: (§1)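 Glucosamine-6-phosphate (40 μM to 10 mM) in HEPES/KCl/Mg(OAc)2 buffer was flowed over sequenced MiSeq chips, and tiles were imaged over ~14 h. Barcoded ribozyme variants there had been transcribed in situ by E. coli RNA polymerase and were tracked through a hybridised Cy3 probe at 37 °C. One- or two-exponential decay fits to per-tile medians, normalised to baseline and to non-cleaving reference variants, gave kobs. kcat and KM came from weighted Michaelis–Menten fits across concentrations.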
# [2] = variants of: B1; experiment: KM; higher = weaker cofactor use; RNA array
# Procedure, shortened: as §1
# [3] = variants of: B1; experiment: self-cleavage kobs at 40 uM GlcN6P; higher = faster cleavage; RNA array
# Procedure, shortened: as §1
# [4] = variants of: B1; experiment: self-cleavage kobs at 160 uM GlcN6P; higher = faster cleavage; RNA array
# Procedure, shortened: as §1
# [5] = variants of: B1; experiment: self-cleavage kobs at 640 uM GlcN6P; higher = faster cleavage; RNA array
# Procedure, shortened: as §1
# [6] = variants of: B1; experiment: self-cleavage kobs at 2500 uM GlcN6P; higher = faster cleavage; RNA array
# Procedure, shortened: as §1
# [7] = variants of: B1; experiment: self-cleavage kobs at 10000 uM GlcN6P; higher = faster cleavage; RNA array
# Procedure, shortened: as §1
Variant,kcat [1] [s⁻¹],KM [2] [µM],self-cleavage kobs at 40 uM GlcN6P [3] [s⁻¹],self-cleavage kobs at 160 uM GlcN6P [4] [s⁻¹],self-cleavage kobs at 640 uM GlcN6P [5] [s⁻¹],self-cleavage kobs at 2500 uM GlcN6P [6] [s⁻¹],self-cleavage kobs at 10000 uM GlcN6P [7] [s⁻¹]
A15G C16U,0.00689 ± 0.0016,876 ± 320,0.000403 ± 5.8e-05,0.000875 ± 0.00017,0.00277 ± 0.00047,0.00432 ± 0.00071,0.00798 ± 0.0011
A15U A53G,0.00765 ± 0.0013,1990 ± 520,0.00019 ± 1.8e-05,0.000531 ± 6.8e-05,0.0015 ± 0.0002,0.00373 ± 0.00055,0.00681 ± 0.00053
A15C C71G,0.000307 ± 5.8e-05,1010 ± 390,–,4.96e-05 ± 1.3e-05,0.00011 ± 1.2e-05,0.000299 ± 3.9e-05,0.00025 ± 3.6e-05
C16U G66C C67U,3.45e-05 ± 4.4e-06,–,–,–,–,–,–
A36G U69G,2.8e-05 ± 8.7e-06,–,–,3.18e-05 ± 1.6e-05,4.85e-05 ± 1.9e-05,–,–
U65A C70G,7.88e-05 ± 4.1e-06,66.3 ± 25,–,5.95e-05 ± 1.2e-05,7.89e-05 ± 1e-05,7.95e-05 ± 1e-05,7.32e-05 ± 7.6e-06
G29U U54C,0.00486 ± 0.0013,1540 ± 590,0.000157 ± 3.1e-05,0.000421 ± 6.8e-05,0.00146 ± 0.00023,0.00249 ± 0.00049,0.00596 ± 0.0013
G29A G32A,0.00111 ± 7.1e-05,2000 ± 220,2.33e-05 ± 8.5e-06,8.75e-05 ± 1.7e-05,0.000239 ± 6.2e-05,0.000588 ± 0.00013,0.000945 ± 0.00013
G13C A53U,0.000137 ± 1.4e-05,5250 ± 1300,–,–,–,4.93e-05 ± 1.6e-05,8.95e-05 ± 1.3e-05
U30A U46A,0.00042 ± 5.2e-05,–,–,–,–,0.000372 ± 0.0001,0.000363 ± 5.1e-05
A12G A53G,0.0017 ± 0.00017,4470 ± 620,–,5.44e-05 ± 7.9e-06,0.000231 ± 3.1e-05,0.000633 ± 7e-05,0.00114 ± 0.00015
C10U G29C,1.05e-05 ± 2.4e-06,–,–,–,–,–,–
A12C A15C,0.00209 ± 0.00064,2000 ± 880,6.78e-05 ± 1.4e-05,0.000151 ± 2.5e-05,0.000451 ± 9e-05,0.000976 ± 0.00019,0.00216 ± 0.00038
G44C C70U,< 1e-05,–,< 1e-05,–,–,–,–
A15G G43U,4.47e-05 ± 6.5e-06,–,–,< 1e-05,–,4.65e-05 ± 9.7e-06,4e-05 ± 5.6e-06
A6U U65A,< 1e-05,–,–,–,–,–,–

# From the supplement of paper PMC7125110
